# Patent publication US20130089540A1 (BIOEX THERAPEUTICS, published 2013)
# T1: CD20 (UniProt P11836 1-297, limits assumed)
# T1 construct: whole, on cells; also called CD20 on CD20+ Ramos cells; antigen
# T1 sequence (looked up): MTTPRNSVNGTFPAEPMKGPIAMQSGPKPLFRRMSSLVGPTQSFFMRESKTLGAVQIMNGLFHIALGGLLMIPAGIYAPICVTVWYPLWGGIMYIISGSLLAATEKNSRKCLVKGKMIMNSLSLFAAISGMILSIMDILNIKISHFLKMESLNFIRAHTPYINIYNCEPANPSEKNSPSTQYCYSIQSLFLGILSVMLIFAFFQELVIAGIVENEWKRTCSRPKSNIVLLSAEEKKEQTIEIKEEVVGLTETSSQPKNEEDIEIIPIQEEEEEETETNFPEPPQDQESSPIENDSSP
# What was measured:
# CD20 [1] = target: T1, CD20; assay: FACS on CD20+ Ramos cells (FIG. 12 legend)
# Protocol: (§1) The specific binding to CD20 was detected by using CD20+ Ramos cell (ATCC) and T lymphocyte leukemia Jurkat cell (ATCC). Cells were incubated with various concentration of antibodies for 1 hour at 4° C. After washing with PBS for 3 times, 1:100 diluted FITC labeled anti-human Fc γ specific second antibody (The Jakson Laboratory) was added and incubated for 1 h at 4° C. After washing with PBS for three times, specific binding was analyzed by FACS instrument.
# CD20 [2] = target: T1, CD20; assay: FACS on CD20+ Ramos cells, FITC anti-human Fc gamma second antibody
# Protocol: as §1
binder,measurement,setting,value
"humanized anti-CD20 antibody 1635 (antibody, human IgG1, V domains shown) VH: QVQLVQSGAEVKKPGASVKVSCKASGYTFTSYNMHWVRQAPGKGLEWIGAIYPGNGDTSYNQKFKGRVTITADKSTSTAYMELSSLRSEDTAVYYCARSTYYGGDWYFNVWGQGTTVTVSS VL: DVVMTQSPAFLSVTPGEKVTITCRASSSVSYIHWFQQKPGKAPKPLIYATSNLASGVPSRFSGSGSGTDFTLTINSLEAEDAATYYCQQWTSNPPTFGGGTKVEIK",binding result,CD20 [1],binds
"humanized anti-CD20 antibody 1534 (antibody, human IgG1, V domains shown) VH: QVQLVQSGAEVKKPGASVKVSCKASGYTFTSYNMHWVRQPPGKGLEWIGAIYPGNGDTSYNQKFKGRVTITADESTSTAYMELSSLRSEDTAVYYCARSTYYGGDWYFNVWGQGTTVTVSS VL: DVVMTQSPAFLSVTPGEKVTITCRASSSVSYIHWFQQKPGKAPKSLIYATSNLASGVPSRFSGSGSGTDFTLTINSLEAEDAATYYCQQWTSNPPTFGGGTKVEIK",binding result,CD20 [2],binds
"humanized anti-CD20 antibody 1535 (antibody, human IgG1, V domains shown) VH: QVQLVQSGAEVKKPGASVKVSCKASGYTFTSYNMHWVRQPPGKGLEWIGAIYPGNGDTSYNQKFKGRVTITADESTSTAYMELSSLRSEDTAVYYCARSTYYGGDWYFNVWGQGTTVTVSS VL: DVVMTQSPAFLSVTPGEKVTITCRASSSVSYIHWFQQKPGKAPKPLIYATSNLASGVPSRFSGSGSGTDFTLTINSLEAEDAATYYCQQWTSNPPTFGGGTKVEIK",binding result,CD20 [2],binds
"humanized anti-CD20 antibody 1634 (antibody, human IgG1, V domains shown) VH: QVQLVQSGAEVKKPGASVKVSCKASGYTFTSYNMHWVRQAPGKGLEWIGAIYPGNGDTSYNQKFKGRVTITADKSTSTAYMELSSLRSEDTAVYYCARSTYYGGDWYFNVWGQGTTVTVSS VL: DVVMTQSPAFLSVTPGEKVTITCRASSSVSYIHWFQQKPGKAPKSLIYATSNLASGVPSRFSGSGSGTDFTLTINSLEAEDAATYYCQQWTSNPPTFGGGTKVEIK",binding result,CD20 [2],binds
"humanized anti-CD20 antibody 3637 (antibody, human IgG1, V domains shown, CDR-optimized variant (hVH-2 / hVK-2)) VH: QVQLVQSGAEVKKPGASVKVSCKASGYTFTSYTMHWVRQAPGKGLEWIGAIYPGNSDTNYNQKFKGRVTITADKSTSTAYMELSSLRSEDTAVYYCARSTYYGGDWNFEVWGQGTTVTVSS VL: DVVMTQSPAFLSVTPGEKVTITCRASSSVSYIHWFQQKPGKAPKPLIYATSNLASGVPSRFSGSGSGTDFTLTINSLEAEDAATYYCQQWTSKPPTFGGGTKVEIK",binding result,CD20 [1],binds
